Source: publication PMC10720262 (Cell Reports, 2023)
Substitutions are numbered along the chain they refer to.

Experiments:
[1] = biological target: T1, recombinant full-length PfCSP (strain NF54) (Plasmodium falciparum NF54, UniProt P19597); assay: BLI; Octet RED96; His-tagged PfCSP on Ni-NTA biosensors, 2-fold dilutions of mAb; PBS pH 7.4, 0.01% BSA, 0.002% Tween 20; 1:1 binding model; conditions: both partners purified
T1 construct: also called NF54 PfCSP; Pf circumsporozoite protein; not shown: His tag, C-terminal, kept
T1 sequence (P19597 20-375): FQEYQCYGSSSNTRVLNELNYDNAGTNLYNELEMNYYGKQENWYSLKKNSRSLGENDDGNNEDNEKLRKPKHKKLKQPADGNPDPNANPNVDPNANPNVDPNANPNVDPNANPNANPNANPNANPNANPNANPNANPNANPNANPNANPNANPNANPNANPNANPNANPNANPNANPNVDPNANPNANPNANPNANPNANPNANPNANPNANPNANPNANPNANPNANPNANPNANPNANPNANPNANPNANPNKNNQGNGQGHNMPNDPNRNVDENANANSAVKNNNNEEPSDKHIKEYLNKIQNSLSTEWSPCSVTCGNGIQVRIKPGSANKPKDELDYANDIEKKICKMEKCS

[2] = biological target: T2, NANP6 peptide (Plasmodium falciparum NF54); assay: SPR; Carterra LSA; mAb amine-coupled to a CMD200M chip, peptide titrated in 2-fold steps up to 8 ug/mL without regeneration; 25 C; HBSTE (10 mM HEPES pH 7.4, 150 mM NaCl, 3 mM EDTA, 0.01% Tween 20); 1:1 Langmuir model; mean of triplicates; KD includes avidity for antigens with several repeats; conditions: both partners purified
T2 construct: source: synthetic peptide (CPC Scientific)

[3] = biological target: recombinant full-length PfCSP (Plasmodium falciparum circumsporozoite protein, strain NF54) (Plasmodium falciparum NF54, UniProt P19597); assay: cell-based or functional assay
Sequence of recombinant full-length PfCSP (Plasmodium falciparum circumsporozoite protein, strain NF54) (P19597 20-375): as above

B1: mAb 317 (antibody, V domains shown)
VH: QMQLVESGGGVVQPGRSLRLSCTASGFTFSTYAMHWVRQSPGQGLQWVAVISYHSTNKYYEDSVRGRFTISRDNSKNTLYLQMNSLRAEDTAVYYCARDGYSSSFFDFWGQGTLVTVSS
VL: DIQMTQSPSTLSASVGDRVAITCRASQSISRWLAWYQQQPGKAPKLLMSGASVLESGVPSRFSGSGSGTEFTLTISSLQPDDFATYYCQHYNSYFVTFGQGTKVEIK
notes: also called 31715 (label with citation mark 15)
With B1 the kon [1] was 27200 M⁻¹ s⁻¹, the Kd [2] was 0.404 nM and the koff [2] was 0.000118 s⁻¹. It also gave a kon [2] of 292000 M⁻¹ s⁻¹.

B2: mAb Ky315 (human IgG1) (antibody, V domains shown)
VH: QVQLVESGGGVVQPGRSLRLSCAASGFTLSNYGVHWVRQAPGTGLEWVALIWYDGSNKFYADSVKGRFTISRDNSMDIVYLQMNNLRAEDTALYYCVRPGIAAAGSNYYAMDVWGQGTAVTVSS
VL: EIVMTQSPATLSMSPGERATLSCRASQSVGSDLAWFQQKPGQAPRLLIYGAFTRATGIPARFSGSGSGSEFTLTISSLQSEDFAVYYCQQYNRWWTFGQGTKVEMK
For B2, the other [3] was < 1.5 µg/mL.

B3: mAb Ky15.10 (human IgG1) (antibody, V domains shown)
VH: QVQLVESGGGVVQPGRSLRLSCAASGFTFSNSGMHWVRQVPGKGLEWVAIIWYDGSNKYYADSVKGRFSVSRDNSENTLYLQMSNLRAEDTAVYYCVRAYFDSENLYDYYGMDVWGQGTTVTVSS
VL: DIQMTQSPSTLSASVGDRVTITCRASQSISRWLAWFQKKPGKAPKLLIYTASNLESGVPSRFSGSGSGTEFTLTISSLQPDDFATYYCQQYYNYWTFGQGTKVEVK
For B3, the other [3] was < 1.5 µg/mL.

B4: mAb Ky15.3 (human IgG1) (antibody, V domains shown)
VH: QVQLVESGGGVVQPGRSLRLSCVASGFTFSNAGMHWVRQTPGKGLEWVAIIWYDGSIKYYGESVKGRFTISRDNSKNTLYLEMSSLRAEDTAVYFCVRAYSGSLYDKYGMDVWGQGTTVIVSS
VL: DIQMTQSPSTLSASVGDRVTISCRASQTISTWLAWFQQKPGKAPKLLIYAASSLQSGVPSRFSGSGSGTDFTLTISNLQPDDFATYYCQQFNSYWTFGQGTKVEIK
B4 was tested, and the other [3] was < 1.5 µg/mL.

B5: mAb Ky224 (human IgG1) (antibody, V domains shown)
VH: QVQLVESGGGVVQPGRSLRLSCAASGFTFSVYGMHWVRQAPGKGLEWVAVIWYDGSNKIYADSVKGRFTISRDNSKNTLYLQMDSLSAADTAVYYCAKIGSSSFDYWGQGTLVIVSS
VL: DIVMTQTPLSSPVTLGQPASISCRSSQSLVHSNGITYLSWLQQRPGQPPRLLLYEISNRFSGVPDRFSGSGTGTDFTLKISRVEAEDVGVYYCMQTTQFPITFGQGTRLEIK
For B5, the other [3] was < 1.5 µg/mL.

B6: mAb Ky15.8 (human IgG1) (antibody, V domains shown)
VH: QVQLVESGGNVVQPGRSLRLSCTASGFTFSSYGMHWVRQAPDKGLEWVAIIWYDGGNKFYADSVKGRFTISRDNSKDTLYLQMNSLRAEDTAVYYCAKAWYKIDDKYSMDVWGQGTTVTVSS
VL: not shown
B6 was tested, and the other [3] was < 1.5 µg/mL.

B7: mAb Ky311 (human IgG1) (antibody, V domains shown)
VH: QMHLVESGGGVVQPGRSLRLSCVASGFTFNNHGMHWVRQAPGKGLEWVAVIWHDGSNKFYADSVNGRFIVSRDNSKNTLYLHMNSLRAEDTAVYYCARDFFVSGSYNYFDPWGQGTLVTVSS
VL: EIVLTQSPVTLSLSPGERATLSCRASQSVSNYLAWYQQKPGQAPRLLIYDAANRATGTPARFSGSGSGTDFTLTISSLEPEDFAVYFCQQRSKWFTFGPGTKLDIK
In the case of B7, the other [3] is reported as < 1.5 µg/mL.

B8: mAb CIS43 (antibody, V domains shown)
VH: QVQLVQSGAEVKKPGASVKVSCKASGYTFTSYAIHWVRQAPGQRLEWMGWIKAGNGNTRYSQKFQDRVTITRDTSTTTAYMELSSLRSEDTAVYYCALLTVLTPDDAFDIWGQGTMVTVSS
VL: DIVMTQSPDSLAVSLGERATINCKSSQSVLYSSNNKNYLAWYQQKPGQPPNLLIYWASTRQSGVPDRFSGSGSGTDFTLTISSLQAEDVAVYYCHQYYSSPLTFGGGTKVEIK
notes: also called CIS4317 (label with citation mark 17)
In the case of B8, the kon [1] is reported as 444000 M⁻¹ s⁻¹, the Kd [2] is reported as 54.9 nM and the koff [2] is reported as 0.00974 s⁻¹. It also gave a kon [2] of 179000 M⁻¹ s⁻¹.

B9: mAb Ky230 (human IgG1) (antibody, V domains shown)
VH: QVQLVESGGGVVQPGRSLRLSCAASGFTFSDYGMHWVRQAPGKGLEWVAIIWHDGSNKYYVDSVKGRFTISRDNSKNTLYLQMNSLRAEDTAVYYCARAASSFGSGFDYWGQGTLVTVSS
VL: DVVMTQSPLSLPVTLGQPASIFCRSSQSLVYSDGNTYLNWFQRRPGQSPRRLIYKVSDRDSGVPDRFSGSGSGTDFTLQISRVEAEDVGVYYCMQGTHWPPTFGQGTKVEIK
For B9, the other [3] was < 1.5 µg/mL.

B10: mAb Ky15.1 (human IgG1) (antibody, V domains shown)
VH: QVQLVESGGGVVQPGRSLRLSCAASGFTFSNFGMHWVRQTPDRGLEWVAIIWFDGSNTFYADSVKGRFTISRDNYKNTLYLQMNSLRAEDTAVYFCARSFYSDSAGSLFDYWGQGTLVTVSS
VL: DIQMTQSPSTLSASVGDRVTITCRASQSISSWVAWYQQKPGKAPKLLIYKASDLETGVPSRFSGSGSGTEFTLTISGLQPDDFVTYYCLQNMRYWTFGQGTKVEIK
In the case of B10, the other [3] is reported as < 1.5 µg/mL.

B11: mAb Ky15.5 (human IgG1) (antibody, V domains shown)
VH: QVQMVASGGGVVQPGRSLRLSCAVSGFTFRNFGMHWVRQDPGRGLEWVAIIWYDGSYEFYADSVKGRFTISRDNSKNTLYLQMNSLRAEDTAVYYCARSYGSLTGDETKYGMDVWGQGTTVTVSS
VL: B3 VL with R31S, K38Q, T50K, N53S, Y92K, V105I
With B11 the other [3] was < 1.5 µg/mL.

B12: Ky15.5 (antibody, V domains shown)
VH: B11 VH
VL: B3 VL with R31S, K38Q, T50K, N53S, Y92K, V105I
notes: source: CHO-3E7, purified (MabSelect SuRe LX)
For B12, the Kd [2] was ≤ 0.0369 nM.

B13: mAb Ky15.2 (human IgG1) (antibody, V domains shown)
VH: QVLLVESGGGVVQPGTSLRLSCVASGFSFSTYGMHWVRQSPGKGLEWVAIIWYDGGNKFYADSVQGRFTVSRDNSKNTLYLQMNSLRAEDTAVYYCAKAYRTSLDKKYGMDVWGQGTTVTVSS
VL: DIQMTQSPSTLSASVGDRVTITCRASQSIASWLAWYQQKPGKAPKLLIYKASSLESGVPSRFSGSGSGTEFTLTISSLHPDDFATYFCQQFTSYWTFGQGTKVEIK
With B13 the other [3] was < 1.5 µg/mL.

B14: mAb Ky15.7 (human IgG1) (antibody, V domains shown)
VH: QVQVVESGGGAVQPGRSLRLSCAASGFTFSNRGMHWVRQTPGKGLEWVAIIWYDGGNKFYADSVKGRFTISRDNSKNTLYLQMNSLRDEDTAVYYCVRAGDWKADKYTMDVWGQGTTVTVSS
VL: B13 VL with A30S, L46V, K50Q, H79Q, F87Y, F91Y, T92N
With B14 the other [3] was < 1.5 µg/mL.

B15: mAb 2541 (antibody, V domains shown)
VH: QVQLVESGGGVVQPGRSLRLSCAASGFTFSSYGMHWVRQTTGKGLEWVAIIWHDGSKKYYADSVKGRLTISRDNSKNTLYLQMNSLRVEDTALYYCARVGDYSDFKYGAFDIWGQGTMVTVSS
VL: B13 VL with A30S, K45N, S53T, H79Q, F87Y, F91Y, T92N, K102R
notes: also called 254121 (label with citation mark 21)
In the case of B15, the kon [1] is reported as 71000 M⁻¹ s⁻¹, the Kd [2] is reported as ≤ 0.133 nM and the koff [2] is reported as ≤ 1e-05 s⁻¹. For the same binder, the kon [2] was 86600 M⁻¹ s⁻¹.

B16: mAb Ky15.11 (human IgG1) (antibody, V domains shown)
VH: QVQLVESGGGVVQPGRSLRLSCEASGFTFSNFGMHWVRQTPVKGLEWVAIIWFDGSYKYYTDSVKGRFTISRDNSKNTLYLQMNSLRAEDTAVYYCARARKGQRSDYYGSETSYTFDNWGQGTLVTVSS
VL: B13 VL with A30N, S31G, L46F, S53I, V58I, H79Q, F87Y, F91Y, T92S
B16 was tested, and the other [3] was < 1.5 µg/mL.
